Laboratory results as given in publication PMC3097272 (The FEBS journal, 2011).
Each block holds one molecule with its values, some of them ahead of it.

What was measured:
[1] = target: non-muscle human F-actin (human) (UniProt P60709); assay: co-sedimentation
[2] = target: rabbit skeletal muscle myosin II (rabbit, UniProt Q28641 1-1938; P02602 1-192; P02608 1-170); assay: co-sedimentation
Chain of rabbit skeletal muscle myosin II (Q28641 whole entry, chain 1 of 3): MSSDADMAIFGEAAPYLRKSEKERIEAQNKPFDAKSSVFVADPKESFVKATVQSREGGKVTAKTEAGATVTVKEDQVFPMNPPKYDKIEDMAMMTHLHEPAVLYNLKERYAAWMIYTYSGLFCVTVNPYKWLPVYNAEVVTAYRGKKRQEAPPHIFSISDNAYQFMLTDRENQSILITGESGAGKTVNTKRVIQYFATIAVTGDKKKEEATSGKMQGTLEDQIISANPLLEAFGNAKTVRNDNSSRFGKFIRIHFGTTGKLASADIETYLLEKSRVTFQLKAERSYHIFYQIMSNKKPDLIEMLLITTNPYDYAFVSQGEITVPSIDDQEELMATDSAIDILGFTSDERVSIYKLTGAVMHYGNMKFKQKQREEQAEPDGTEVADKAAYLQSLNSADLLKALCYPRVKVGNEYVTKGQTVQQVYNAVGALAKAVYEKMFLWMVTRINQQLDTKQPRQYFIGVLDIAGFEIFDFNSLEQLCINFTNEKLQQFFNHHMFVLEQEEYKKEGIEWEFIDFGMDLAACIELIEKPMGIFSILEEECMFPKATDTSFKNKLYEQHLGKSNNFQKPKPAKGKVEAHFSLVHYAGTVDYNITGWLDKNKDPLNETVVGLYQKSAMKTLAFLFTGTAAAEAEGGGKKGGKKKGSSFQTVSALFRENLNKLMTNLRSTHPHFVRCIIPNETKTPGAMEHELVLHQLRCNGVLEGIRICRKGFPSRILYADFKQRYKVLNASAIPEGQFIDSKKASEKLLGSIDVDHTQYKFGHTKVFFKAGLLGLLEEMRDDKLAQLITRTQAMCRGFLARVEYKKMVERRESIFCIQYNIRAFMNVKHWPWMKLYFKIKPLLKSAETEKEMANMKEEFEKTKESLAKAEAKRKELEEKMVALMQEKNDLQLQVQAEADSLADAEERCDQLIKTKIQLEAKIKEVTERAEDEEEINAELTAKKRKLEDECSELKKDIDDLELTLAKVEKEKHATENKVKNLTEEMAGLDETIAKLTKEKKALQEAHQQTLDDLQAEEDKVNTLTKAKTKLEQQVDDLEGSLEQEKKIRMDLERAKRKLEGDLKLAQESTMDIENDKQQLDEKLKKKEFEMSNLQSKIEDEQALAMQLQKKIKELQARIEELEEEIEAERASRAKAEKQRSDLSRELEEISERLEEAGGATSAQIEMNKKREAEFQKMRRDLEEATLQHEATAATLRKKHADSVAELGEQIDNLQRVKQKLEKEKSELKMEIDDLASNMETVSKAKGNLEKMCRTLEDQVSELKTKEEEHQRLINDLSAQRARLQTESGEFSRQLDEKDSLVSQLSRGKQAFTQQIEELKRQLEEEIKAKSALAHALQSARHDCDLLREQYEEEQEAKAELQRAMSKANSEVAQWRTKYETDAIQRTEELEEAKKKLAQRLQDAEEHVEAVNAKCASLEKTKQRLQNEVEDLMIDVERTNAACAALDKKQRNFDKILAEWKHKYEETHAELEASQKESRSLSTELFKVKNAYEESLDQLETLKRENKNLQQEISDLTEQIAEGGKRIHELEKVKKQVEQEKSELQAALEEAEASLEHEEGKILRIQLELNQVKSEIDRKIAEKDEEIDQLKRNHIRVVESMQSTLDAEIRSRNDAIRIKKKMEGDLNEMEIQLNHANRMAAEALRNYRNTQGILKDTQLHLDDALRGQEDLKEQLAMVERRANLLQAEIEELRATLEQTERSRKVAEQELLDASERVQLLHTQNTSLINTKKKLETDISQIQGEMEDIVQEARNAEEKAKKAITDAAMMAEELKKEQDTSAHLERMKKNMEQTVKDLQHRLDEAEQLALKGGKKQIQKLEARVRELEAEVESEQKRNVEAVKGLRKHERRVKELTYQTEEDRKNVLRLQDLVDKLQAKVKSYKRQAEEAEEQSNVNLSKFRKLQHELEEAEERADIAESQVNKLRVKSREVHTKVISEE
Chain of rabbit skeletal muscle myosin II (P02602 2-192, chain 2 of 3): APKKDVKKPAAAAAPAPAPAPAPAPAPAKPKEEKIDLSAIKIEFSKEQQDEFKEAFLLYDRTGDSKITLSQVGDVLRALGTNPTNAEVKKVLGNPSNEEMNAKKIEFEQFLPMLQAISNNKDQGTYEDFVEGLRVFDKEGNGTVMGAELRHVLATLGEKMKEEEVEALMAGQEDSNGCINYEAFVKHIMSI
Chain of rabbit skeletal muscle myosin II (P02608 2-170, chain 3 of 3): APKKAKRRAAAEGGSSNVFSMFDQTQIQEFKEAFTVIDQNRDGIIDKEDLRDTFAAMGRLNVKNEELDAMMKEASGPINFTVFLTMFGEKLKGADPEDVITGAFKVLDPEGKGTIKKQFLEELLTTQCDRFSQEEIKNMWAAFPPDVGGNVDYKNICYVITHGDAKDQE

stoichiometry N (molar ratio (to 1)) [1]: 5
Molecule: recombinant HGAL protein (Trx-HGAL fusion protein) (from UniProt Q8N6F7 1-178) (natural protein)

stoichiometry N [2]: 2.5 molar ratio (to 1)
B1: recombinant HGAL protein (Trx-HGAL fusion protein) (natural protein, human, UniProt Q8N6F7 1-178, looked up)
chain: MGNSLLRENRRQQNTQEMPWNVRMQSPKQRTSRCWDHHIAEGCFCLPWKKILIFEKRQDSQNENERMSSTPIQDNVDQTYSEELCYTLINHRVLCTRPSGNSAEEYYENVPCKAERPRESLGGTETEYSLLHMPSTDPRHARSPEDEYELLMPHRISSHFLQQPRPLMAPSETQFSHL
